{"source": "patent US20260201020A1", "about": "“METHODS FOR EXPRESSION OF FUSION-FREE BOVINE ULTRALONG CDR3 SCAFFOLD” (priority 2022, published 2026)", "binders": {"B1": {"name": "R2G3-His (peptide)", "chain": "GGGGAMGSEGDKTCPDGYEHTCGCIGGCGCKRSACIGALCCQASLGGWLSDGETYTGGGGSGGGGSHHHHHH", "modifications": "not checked"}}, "key": {"[1]": {"biological_target": "SARS-CoV-2 Spike RBD (SARS-CoV-2), P0DTC2"}, "[2]": {"biological_target": "SARS-CoV-2 Spike RBD (SARS-CoV-2), P0DTC2", "remark": "listed apart in the source"}, "[3]": {"biological_target": "SARS-CoV-2 Spike RBD (SARS-CoV-2), P0DTC2", "remark": "listed apart in the source"}, "[4]": {"biological_target": "SARS-CoV-2 Spike RBD (SARS-CoV-2), P0DTC2", "remark": "listed apart in the source"}, "[5]": {"biological_target": "SARS-CoV-2 Spike RBD (SARS-CoV-2), P0DTC2", "remark": "listed apart in the source"}, "[6]": {"biological_target": "SARS-CoV-2 Spike RBD (SARS-CoV-2), P0DTC2", "remark": "listed apart in the source"}, "[7]": {"biological_target": "SARS-CoV-2 Spike RBD (SARS-CoV-2), P0DTC2", "remark": "listed apart in the source"}, "[8]": {"biological_target": "SARS-CoV-2 Spike RBD (SARS-CoV-2), P0DTC2", "remark": "listed apart in the source"}, "[9]": {"biological_target": "SARS-CoV-2 Spike RBD (SARS-CoV-2), P0DTC2", "remark": "listed apart in the source"}, "[10]": {"biological_target": "SARS-CoV-2 Spike RBD (SARS-CoV-2), P0DTC2", "remark": "listed apart in the source"}, "[11]": {"biological_target": "SARS-CoV-2 Spike RBD (SARS-CoV-2), P0DTC2", "remark": "listed apart in the source"}, "[12]": {"biological_target": "SARS-CoV-2 Spike RBD (SARS-CoV-2), P0DTC2", "remark": "listed apart in the source"}, "[13]": {"biological_target": "SARS-CoV-2 Spike RBD (SARS-CoV-2), P0DTC2", "remark": "listed apart in the source"}, "[14]": {"biological_target": "SARS-CoV-2 Spike RBD (SARS-CoV-2), P0DTC2", "remark": "listed apart in the source"}, "[15]": {"biological_target": "SARS-CoV-2 Spike RBD (SARS-CoV-2), P0DTC2", "remark": "listed apart in the source"}, "[16]": {"biological_target": "SARS-CoV-2 Spike RBD (SARS-CoV-2), P0DTC2", "remark": "listed apart in the source"}, "[17]": {"biological_target": "SARS-CoV-2 Spike RBD (SARS-CoV-2), P0DTC2", "remark": "listed apart in the source"}, "[18]": {"biological_target": "SARS-CoV-2 Spike RBD (SARS-CoV-2), P0DTC2", "remark": "listed apart in the source"}, "[19]": {"biological_target": "SARS-CoV-2 Spike RBD (SARS-CoV-2), P0DTC2", "remark": "listed apart in the source"}, "[20]": {"biological_target": "SARS-CoV-2 Spike RBD (SARS-CoV-2), P0DTC2", "remark": "listed apart in the source"}, "[21]": {"biological_target": "SARS-CoV-2 Spike RBD (SARS-CoV-2), P0DTC2", "remark": "listed apart in the source"}, "[22]": {"biological_target": "SARS-CoV-2 Spike RBD (SARS-CoV-2), P0DTC2", "remark": "listed apart in the source"}, "[23]": {"biological_target": "SARS-CoV-2 Spike RBD (SARS-CoV-2), P0DTC2", "remark": "listed apart in the source"}, "[24]": {"biological_target": "SARS-CoV-2 Spike RBD (SARS-CoV-2), P0DTC2", "remark": "listed apart in the source"}, "[25]": {"biological_target": "SARS-CoV-2 Spike RBD (SARS-CoV-2), P0DTC2", "remark": "listed apart in the source"}, "[26]": {"biological_target": "SARS-CoV-2 Spike RBD (SARS-CoV-2), P0DTC2", "remark": "listed apart in the source"}, "[27]": {"biological_target": "SARS-CoV-2 Spike RBD (SARS-CoV-2), P0DTC2", "remark": "listed apart in the source"}}, "note": "Where two headings read alike, the source gives them in different places.", "data": [{"binder": "B1", "values": [{"measurement": "Adjusted Binding Rate", "setting": "[1]", "result": 34, "unit": "nm/s"}, {"measurement": "Adjusted Binding Rate", "setting": "[2]", "result": 7.34, "unit": "nm/s"}, {"measurement": "Adjusted Binding Rate", "setting": "[3]", "result": 7.24, "unit": "nm/s"}, {"measurement": "Adjusted Binding Rate", "setting": "[4]", "result": 2.88, "unit": "nm/s"}, {"measurement": "Adjusted Binding Rate", "setting": "[5]", "result": 5.39, "unit": "nm/s"}, {"measurement": "Adjusted Binding Rate", "setting": "[6]", "result": 7.1, "unit": "nm/s"}, {"measurement": "Adjusted Binding Rate", "setting": "[7]", "result": 22, "unit": "nm/s"}, {"measurement": "Adjusted Binding Rate", "setting": "[8]", "result": 3.73, "unit": "nm/s"}, {"measurement": "Adjusted Binding Rate", "setting": "[9]", "result": 2.44, "unit": "nm/s"}, {"measurement": "Adjusted Binding Rate", "setting": "[10]", "result": 4.3, "unit": "nm/s"}, {"measurement": "Adjusted Binding Rate", "setting": "[11]", "result": 8.31, "unit": "nm/s"}, {"measurement": "Adjusted Binding Rate", "setting": "[12]", "result": 14.3, "unit": "nm/s"}, {"measurement": "Adjusted Binding Rate", "setting": "[13]", "result": 12.5, "unit": "nm/s"}, {"measurement": "Adjusted Binding Rate", "setting": "[14]", "result": 2.12, "unit": "nm/s"}, {"measurement": "Adjusted Binding Rate", "setting": "[15]", "result": 6.47, "unit": "nm/s"}, {"measurement": "Adjusted Binding Rate", "setting": "[16]", "result": 5.5, "unit": "nm/s"}, {"measurement": "Adjusted Binding Rate", "setting": "[17]", "result": 6.42, "unit": "nm/s"}, {"measurement": "Adjusted Binding Rate", "setting": "[18]", "result": 19.4, "unit": "nm/s"}, {"measurement": "Adjusted Binding Rate", "setting": "[19]", "result": 6.36, "unit": "nm/s"}, {"measurement": "Adjusted Binding Rate", "setting": "[20]", "result": 3.79, "unit": "nm/s"}, {"measurement": "Adjusted Binding Rate", "setting": "[21]", "result": 7.41, "unit": "nm/s"}, {"measurement": "Adjusted Binding Rate", "setting": "[22]", "result": 4.4, "unit": "nm/s"}, {"measurement": "Adjusted Binding Rate", "setting": "[23]", "result": 7.3, "unit": "nm/s"}, {"measurement": "Adjusted Binding Rate", "setting": "[24]", "result": 1.5, "unit": "nm/s"}, {"measurement": "Adjusted Binding Rate", "setting": "[25]", "result": 3.35, "unit": "nm/s"}, {"measurement": "Adjusted Binding Rate", "setting": "[26]", "result": 32.8, "unit": "nm/s"}, {"measurement": "Adjusted Binding Rate", "setting": "[27]", "result": 4.91, "unit": "nm/s"}]}]}
